Columns and labels:
[1] = target: purified recombinant CD163 immobilized on a Biacore chip (human) (UniProt Q86VB7); assay: SPR, immobilized CD163, 10 mM EDTA
[2] = target: human CD163 on cells (human) (UniProt Q86VB7); assay: quantitative flow cytometry, whole blood, EDTA
[3] = target: human CD163 on cells (human) (UniProt Q86VB7); assay: quantitative flow cytometry, whole blood, citrate
[4] = target: human CD163 on cells (human) (UniProt Q86VB7); assay: quantitative flow cytometry, whole blood, heparin
[5] = target: human CD163 on cells (human) (UniProt Q86VB7); assay: flow cytometry, whole blood, EDTA as anticoagulant
[6] = target: human CD163 on cells (human) (UniProt Q86VB7); assay: flow cytometry, whole blood, citrate as anticoagulant
[7] = target: human CD163 on cells (human) (UniProt Q86VB7); assay: flow cytometry, whole blood, heparin as anticoagulant
[8] = target: human CD163 on cells (human) (UniProt Q86VB7); assay: flow cytometry, R-PE mAb, freshly drawn EDTA whole blood
[9] = target: human CD163 on cells (human) (UniProt Q86VB7); assay: flow cytometry, PE mAb, peripheral blood dendritic cells
[10] = target: human CD163 on cells (human) (UniProt Q86VB7); assay: flow cytometry, PBMC after density gradient centrifugation
[11] = target: human CD163 on cells (human) (UniProt Q86VB7); assay: flow cytometry, PE mAb, CD14-ILT3+ dendritic cells in whole blood
[12] = target: human CD163 on cells (human) (UniProt Q86VB7); assay: quantitative flow cytometry, Quantibrite PE beads, EDTA whole blood
[13] = target: human CD163 on cells (human) (UniProt Q86VB7); assay: flow cytometry, CD163low subset of peripheral blood dendritic cells
[14] = target: human CD163 on cells (human) (UniProt Q86VB7); assay: flow cytometry, CD163high subset of peripheral blood dendritic cells
[15] = target: human CD163 on cells (human) (UniProt Q86VB7); assay: flow cytometry, CD14+ILT3+HLA-DR+ monocytes stained positive for CD163
[16] = target: human CD163 on cells (human) (UniProt Q86VB7); assay: quantitative flow cytometry, PBMC after density gradient centrifugation
[17] = target: human CD163 on cells (human) (UniProt Q86VB7); assay: 125I-labelled mAb on stable CD163 transfected Flp-In CHO cells (1.23% on non-transfected cells)
[18] = target: human CD163 on cells (human) (UniProt Q86VB7); assay: 125I-labelled mAb on stable CD163 transfected Flp-In CHO cells (0.97% on non-transfected cells)
[19] = target: purified recombinant CD163 immobilized on a Biacore chip (human) (UniProt Q86VB7); assay: SPR, immobilized CD163, 2 mM free Ca2+
[20] = target: human CD163 on cells (human) (UniProt Q86VB7); assay: 125I-labelled mAb on stable CD163 transfected Flp-In CHO cells (1.47% on non-transfected cells)
rat CD163 on cells (rat) [21] = assay: flow cytometry, rat peritoneal macrophages, ED2-FITC
rat CD163 on cells (rat) [22] = assay: flow cytometry of rat peritoneal macrophages, anti-rat CD163-FITC (ED2) against anti-rat CD172a-PE (ED9)
rat CD163 on cells (rat) [23] = assay: cell-based or functional assay
rat CD163 on cells (rat) [24] = assay: flow cytometry of rat peritoneal macrophages, negative control staining with IgG-FITC
[25] = target: human CD163 on cells (human) (UniProt Q86VB7); assay: quantitative flow cytometry, background staining, EDTA whole blood
[26] = target: human CD163 on cells (human) (UniProt Q86VB7); assay: flow cytometry on peripheral blood dendritic cells, negative staining control

Chain of human CD163 on cells (human) (Q86VB7 42-1156): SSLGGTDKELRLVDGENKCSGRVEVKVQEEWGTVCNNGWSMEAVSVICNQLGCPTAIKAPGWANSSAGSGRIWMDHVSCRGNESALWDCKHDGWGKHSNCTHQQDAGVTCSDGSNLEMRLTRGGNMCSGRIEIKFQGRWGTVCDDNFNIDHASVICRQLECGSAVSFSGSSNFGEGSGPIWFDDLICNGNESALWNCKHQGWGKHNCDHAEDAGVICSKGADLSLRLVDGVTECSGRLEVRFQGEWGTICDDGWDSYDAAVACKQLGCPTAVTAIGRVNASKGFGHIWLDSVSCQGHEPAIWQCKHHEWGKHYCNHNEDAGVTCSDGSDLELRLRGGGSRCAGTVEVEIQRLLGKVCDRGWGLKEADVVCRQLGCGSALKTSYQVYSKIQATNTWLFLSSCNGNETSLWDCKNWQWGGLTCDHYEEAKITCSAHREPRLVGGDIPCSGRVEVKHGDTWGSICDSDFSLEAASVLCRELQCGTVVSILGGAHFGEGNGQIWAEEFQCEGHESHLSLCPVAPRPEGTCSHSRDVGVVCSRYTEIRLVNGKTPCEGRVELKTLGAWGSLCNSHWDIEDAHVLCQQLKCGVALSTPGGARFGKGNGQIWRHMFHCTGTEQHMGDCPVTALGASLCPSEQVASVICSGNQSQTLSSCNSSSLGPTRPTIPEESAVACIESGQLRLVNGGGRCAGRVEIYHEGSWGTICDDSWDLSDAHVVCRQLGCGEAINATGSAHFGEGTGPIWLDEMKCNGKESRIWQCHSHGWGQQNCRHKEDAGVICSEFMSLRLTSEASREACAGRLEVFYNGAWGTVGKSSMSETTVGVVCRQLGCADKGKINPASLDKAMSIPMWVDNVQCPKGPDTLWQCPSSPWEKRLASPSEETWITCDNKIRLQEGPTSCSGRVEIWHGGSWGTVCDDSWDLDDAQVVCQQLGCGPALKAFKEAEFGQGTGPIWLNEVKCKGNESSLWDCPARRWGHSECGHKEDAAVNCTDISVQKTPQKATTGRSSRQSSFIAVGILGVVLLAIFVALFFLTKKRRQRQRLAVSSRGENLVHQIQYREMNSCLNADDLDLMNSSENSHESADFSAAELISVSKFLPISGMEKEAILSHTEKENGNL
Chain of purified recombinant CD163 immobilized on a Biacore chip (human) (Q86VB7 42-1050 limits assumed): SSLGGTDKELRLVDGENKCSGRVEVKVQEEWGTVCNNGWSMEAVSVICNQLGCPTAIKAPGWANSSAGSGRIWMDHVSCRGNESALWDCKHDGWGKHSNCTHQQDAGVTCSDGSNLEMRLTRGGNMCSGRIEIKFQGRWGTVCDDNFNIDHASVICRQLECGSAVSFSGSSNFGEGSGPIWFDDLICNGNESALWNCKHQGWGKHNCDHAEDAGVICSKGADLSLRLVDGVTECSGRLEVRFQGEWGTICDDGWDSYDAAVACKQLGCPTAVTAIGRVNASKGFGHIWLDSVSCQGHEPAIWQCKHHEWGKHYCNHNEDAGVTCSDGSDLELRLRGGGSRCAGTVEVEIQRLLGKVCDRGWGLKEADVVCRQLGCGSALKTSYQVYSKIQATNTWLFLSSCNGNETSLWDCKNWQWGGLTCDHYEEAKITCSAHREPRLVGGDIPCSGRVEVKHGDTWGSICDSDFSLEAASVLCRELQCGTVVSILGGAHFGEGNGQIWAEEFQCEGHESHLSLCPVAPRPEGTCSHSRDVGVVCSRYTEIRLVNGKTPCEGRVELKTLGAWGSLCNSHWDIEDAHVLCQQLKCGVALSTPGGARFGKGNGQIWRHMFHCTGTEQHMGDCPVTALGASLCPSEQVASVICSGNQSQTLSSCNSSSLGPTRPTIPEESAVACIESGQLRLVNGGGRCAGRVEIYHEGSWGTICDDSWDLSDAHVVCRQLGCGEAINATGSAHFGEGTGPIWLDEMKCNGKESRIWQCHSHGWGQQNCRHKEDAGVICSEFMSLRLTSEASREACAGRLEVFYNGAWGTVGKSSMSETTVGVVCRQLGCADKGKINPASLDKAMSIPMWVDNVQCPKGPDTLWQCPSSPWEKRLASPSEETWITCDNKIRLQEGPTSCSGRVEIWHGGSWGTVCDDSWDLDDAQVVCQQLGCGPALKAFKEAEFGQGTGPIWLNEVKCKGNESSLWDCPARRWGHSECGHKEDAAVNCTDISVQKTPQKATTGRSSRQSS

Substance | density of CD163 receptors per monocyte (PE antibodies bound per cell) [2] [per monocyte] | density of CD163 receptors per monocyte (PE antibodies bound per cell) [3] [per monocyte] | density of CD163 receptors per monocyte (PE antibodies bound per cell) [4] [per monocyte] | fraction of CD14+ monocytes stained positive for CD163 [5] [%] | fraction of CD14+ monocytes stained positive for CD163 [6] [%] | fraction of CD14+ monocytes stained positive for CD163 [7] [%] | fraction of CD14+ monocytes stained positive for CD163 [8] [%] | fraction of CD14+ monocytes stained positive for CD163 [10] [%] | density of CD163 receptors per monocyte (PE antibodies bound per cell) [12] [per monocyte] | density of CD163 receptors per monocyte (PE antibodies bound per cell) [16] [per monocyte] | other results
Anti-CD163 (GHI/61) (antibody, non-transfected cells) |  |  |  |  |  |  |  |  |  |  | percentage of cell-associated radioactivity [17]: 1.23%
Anti-CD163 (R-20) (antibody) | 1760 | 1990 | 3020 | 75.9 | 74.7 | 63 | 75.9 | 54.4 | 1650 | 837 | percentage of cell-associated radioactivity [18]: 19%
Anti-rat CD163 ED2 (antibody) |  |  |  |  |  |  |  |  |  |  | fraction of peritoneal macrophages CD163 positive (rat CD163 on cells (rat) [21]): 42%; % of cells in the lower right quadrant (CD172a PE negative, CD163 FITC positive) (rat CD163 on cells (rat) [22]): 0.01%; % of cells in the upper right quadrant (CD172a PE positive, CD163 FITC positive) (rat CD163 on cells (rat) [22]): 42.9%
ED2-MVCP-dexamethasone (antibody) |  |  |  |  |  |  |  |  |  |  | suppressive effect on LPS mediated TNFα in vitro, rat spleen cells, against free dexamethasone (rat CD163 on cells (rat) [23]): 3 fold
ED2-NHS-dexamethasone (antibody) |  |  |  |  |  |  |  |  |  |  | level of TNFα suppression after 15 minutes of incubation, LPS stimulated rat spleen cells, against free dexamethasone (rat CD163 on cells (rat) [23]): 2 fold; suppressive effect on LPS mediated TNFα in vitro, rat spleen cells, against free dexamethasone (rat CD163 on cells (rat) [23]): 2 fold
IgG-FITC (antibody) |  |  |  |  |  |  |  |  |  |  | % of cells in the lower right quadrant (IgG FITC positive) (rat CD163 on cells (rat) [24]): 0.41%; % of cells in the upper right quadrant (IgG FITC positive, FL2 positive) (rat CD163 on cells (rat) [24]): 0.06%
R-PE-conjugated Mouse IgG1, k isotype control (MCG1) (antibody) |  |  |  |  |  |  |  |  |  |  | density of CD163 receptors per monocyte (PE antibodies bound per cell) [25]: 94 per monocyte; MFI [26]: 1.23 MFI

Second part, led by results:

density of CD163 receptors per monocyte (PE antibodies bound per cell) [2] [per monocyte] | density of CD163 receptors per monocyte (PE antibodies bound per cell) [3] [per monocyte] | density of CD163 receptors per monocyte (PE antibodies bound per cell) [4] [per monocyte] | fraction of CD14+ monocytes stained positive for CD163 [5] [%] | fraction of CD14+ monocytes stained positive for CD163 [6] [%] | fraction of CD14+ monocytes stained positive for CD163 [7] [%] | fraction of CD14+ monocytes stained positive for CD163 [8] [%] | fraction of CD14+ monocytes stained positive for CD163 [10] [%] | density of CD163 receptors per monocyte (PE antibodies bound per cell) [12] [per monocyte] | density of CD163 receptors per monocyte (PE antibodies bound per cell) [16] [per monocyte] | Substance | other results
1030 | 1150 | 58.3 | 63 | 64.4 | 0.82 | 63 | 1.26 | 1030 | 108 | Anti-CD163 (GHI/61) (antibody) | Kd [1]: 29 nM; MFI [9]: 22.3; fraction of peripheral blood dendritic cells recognized [11]: 10.5%; MFI [13]: 4.2 MFI; MFI [14]: 34.6 MFI; percent of cells stained positive [15]: 88%
86 | 207 | 210 | 0.33 | 12.5 | 3.33 | 0.33 | 2.5 | 101 | 132 | Anti-CD163 (RM3/1) (antibody) | Kd [19]: 0.6 nM; percentage of cell-associated radioactivity [20]: 7.77%

From patent US20120258107A1
